From patent US20170015742A1 (published 2017)
Positions count from the first letter of the chain named. One block for each binder: values may come before it.

Columns and labels:
[1] = molecular target: recombinant human VEGF165 (human, UniProt P15692 207-395); test: cell-based or functional assay
[2] = molecular target: recombinant human PDGF-BB (human, UniProt P01127 82-190); test: cell-based or functional assay
Sequence of recombinant human PDGF-BB (P01127 82-190 limits assumed): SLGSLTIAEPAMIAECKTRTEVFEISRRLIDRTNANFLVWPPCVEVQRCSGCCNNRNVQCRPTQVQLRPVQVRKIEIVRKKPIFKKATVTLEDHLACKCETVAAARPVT

Sequence of recombinant human VEGF165 (P15692 other isoform, or with tags, fused parts or gaps limits assumed): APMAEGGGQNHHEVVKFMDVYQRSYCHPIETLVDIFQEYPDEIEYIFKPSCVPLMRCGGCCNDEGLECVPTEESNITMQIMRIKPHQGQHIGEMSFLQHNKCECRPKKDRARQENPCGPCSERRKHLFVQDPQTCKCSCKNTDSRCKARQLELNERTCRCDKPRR

B1: CL-34565_GS_3E2.1 (PR-1613185) (bispecific antibody, human IgG1, kappa, L234A L235A)
heavy: EVQLVQSGSELKKPGASVKVSCKASGYTFTDYGMYWVRQAPGQGLEWMGWIDTETGDPTYADDFKGRFVFSLDTSVSTAYLQISSLKAEDTAVYYCARTNYYYRNYMFYFDYWGQGTMVTVSSGGGGSGGGGSEVQLVQSGAEVKKPGSSVKVSCKASGYTFTESYMYWVKQAPGQGLELIGRIDPEDGSTDYVEKFKNKATLTADKSTSTAYMELSSLRSEDTAVYFCARFGARSYFYPMDAWGQGTTVTVSSASTKGPSVFPLAPSSKSTSGGTAALGCLVKDYFPEPVTVSWNSGALTSGVHTFPAVLQSSGLYSLSSVVTVPSSSLGTQTYICNVNHKPSNTKVDKKVEPKSCDKTHTCPPCPAPEAAGGPSVFLFPPKPKDTLMISRTPEVTCVVVDVSHEDPEVKFNWYVDGVEVHNAKTKPREEQYNSTYRVVSVLTVLHQDWLNGKEYKCKVSNKALPAPIEKTISKAKGQPREPQVYTLPPSREEMTKNQVSLTCLVKGFYPSDIAVEWESNGQPENNYKTTPPVLDSDGSFFLYSKLTVDKSRWQQGNVFSCSVMHEALHNAYTQKSLSLSPGK
light: EIVLTQSPATLSLSPGERATLFCRASQSVSNHMHWYQQKPGQAPRLLIYGASILESGVPARFSGSGSGTDFTLTISSLEPEDFAVYYCQQSWYDPITFGQGTKLEIKGGSGGGGSGGETVLTQSPATLSLSPGERATLSCRASESVSTLMHWYQQKPGQQPRLLIYGASNLESGVPARFSGSGSGTDFTLTISSLEPEDFAVYFCQQSWNDPWTFGGGTKVEIKRTVAAPSVFIFPPSDEQLKSGTASVVCLLNNFYPREAKVQWKVDNALQSGNSQESVTEQDSKDSTYSLSSTLTLSKADYEKHKVYACEVTHQGLSSPVTKSFNRGEC
Potency IC50 (nM), HMVEC-d hVEGF165 (proliferation) [1]: 0.053 nM
Potency IC50 (nM), NIH-3T3 hPDGF-BB (proliferation) [2]: 6 nM

B2: 3E2.1_GS_1E3.4 (PR-1613190) (bispecific antibody, human IgG1, kappa, L234A L235A)
heavy: EVQLVQSGAEVKKPGSSVKVSCKASGYTFTESYMYWVKQAPGQGLELIGRIDPEDGSTDYVEKFKNKATLTADKSTSTAYMELSSLRSEDTAVYFCARFGARSYFYPMDAWGQGTTVTVSSGGGGSGGGGSEIQLVQSGSELKKPGASVKVSCKASGYPFTNSGMYWVKQAPGQGLEYMGWINTEAGKPTYADDFKGRFVFSLDTSVSTAYLQISSLKAEDTAVYFCARWGYISDNSYGWFDYWGQGTLVTVSSASTKGPSVFPLAPSSKSTSGGTAALGCLVKDYFPEPVTVSWNSGALTSGVHTFPAVLQSSGLYSLSSVVTVPSSSLGTQTYICNVNHKPSNTKVDKKVEPKSCDKTHTCPPCPAPEAAGGPSVFLFPPKPKDTLMISRTPEVTCVVVDVSHEDPEVKFNWYVDGVEVHNAKTKPREEQYNSTYRVVSVLTVLHQDWLNGKEYKCKVSNKALPAPIEKTISKAKGQPREPQVYTLPPSREEMTKNQVSLTCLVKGFYPSDIAVEWESNGQPENNYKTTPPVLDSDGSFFLYSKLTVDKSRWQQGNVFSCSVMHEALHNAYTQKSLSLSPGK
light: ETVLTQSPATLSLSPGERATLSCRASESVSTLMHWYQQKPGQQPRLLIYGASNLESGVPARFSGSGSGTDFTLTISSLEPEDFAVYFCQQSWNDPWTFGGGTKVEIKGGSGGGGSGGATQLTQSPSSLSASVGDRVTISCRASEGVYSYMHWYQQKPGKQPKLLIYKASNLASGVPSRFSGSGSGTDFTLTISSLQPEDFATYFCHQNWNDPLTFGQGTKLEIKRTVAAPSVFIFPPSDEQLKSGTASVVCLLNNFYPREAKVQWKVDNALQSGNSQESVTEQDSKDSTYSLSSTLTLSKADYEKHKVYACEVTHQGLSSPVTKSFNRGEC
Potency IC50 (nM), HMVEC-d hVEGF165 (proliferation) [1]: 0.709 nM
Potency IC50 (nM), NIH-3T3 hPDGF-BB (proliferation) [2]: 0.896 nM

B3: CL-33675_GS_CL-34565 (PR-1613186) (bispecific antibody, human IgG1, kappa, L234A L235A)
heavy: EVTLRESGPALVKPTQTLTLTCTFSGFSLSTYGMGVGWIRQPPGKALEWLANIWWDDDKYYNPSLKNRLTISKDTSKNQVVLTMTNMDPVDTATYYCARIESSGPKYSFDYWGQGTMVTVSSGGGGSGGGGSEVQLVQSGSELKKPGASVKVSCKASGYTFTDYGMYWVRQAPGQGLEWMGWIDTETGDPTYADDFKGRFVFSLDTSVSTAYLQISSLKAEDTAVYYCARTNYYYRNYMFYFDYWGQGTMVTVSSASTKGPSVFPLAPSSKSTSGGTAALGCLVKDYFPEPVTVSWNSGALTSGVHTFPAVLQSSGLYSLSSVVTVPSSSLGTQTYICNVNHKPSNTKVDKKVEPKSCDKTHTCPPCPAPEAAGGPSVFLFPPKPKDTLMISRTPEVTCVVVDVSHEDPEVKFNWYVDGVEVHNAKTKPREEQYNSTYRVVSVLTVLHQDWLNGKEYKCKVSNKALPAPIEKTISKAKGQPREPQVYTLPPSREEMTKNQVSLTCLVKGFYPSDIAVEWESNGQPENNYKTTPPVLDSDGSFFLYSKLTVDKSRWQQGNVFSCSVMHEALHNAYTQKSLSLSPGK
light: EIVLTQSPGTLSLSPGERATLSCRASSGSIWYSFVSWYQQKPGQAPRLLIYADDQRASGIPDRFSGSGSGTDFTLTISRLEPEDFAVYYCQSYGINIDVVFGGGTKVEIKGGSGGGGSGGEIVLTQSPATLSLSPGERATLFCRASQSVSNHMHWYQQKPGQAPRLLIYGASILESGVPARFSGSGSGTDFTLTISSLEPEDFAVYYCQQSWYDPITFGQGTKLEIKRTVAAPSVFIFPPSDEQLKSGTASVVCLLNNFYPREAKVQWKVDNALQSGNSQESVTEQDSKDSTYSLSSTLTLSKADYEKHKVYACEVTHQGLSSPVTKSFNRGEC
Potency IC50 (nM), HMVEC-d hVEGF165 (proliferation) [1]: 0.05 nM
Potency IC50 (nM), NIH-3T3 hPDGF-BB (proliferation) [2]: 0.043 nM

B6: 9E8.4_GS_4G8.5 (PR-1613188) (bispecific antibody, human IgG1, kappa, L234A L235A)
heavy: EVTLRESGPALVKPTQTLTLTCTFSGFSLSTYGMGVGWIRQPPGKALEWLANIWWDDDKYYNPSLKNRLTISKDTSKNQVVLTMTNMDPVDTATYYCARIESIGTTYSFDYWGQGTMVTVSSGGGGSGGGGSEIQLVQSGSELKKPGASVKVSCKASGYTFTNYGMYWVRQAPGQGLEYMGWINTETGKPTYADDFKGRFVFSLDTSVSTAYLQISSLKAEDTAVYFCARTNYYYRSYIFYFDYWGQGTMVTVSSASTKGPSVFPLAPSSKSTSGGTAALGCLVKDYFPEPVTVSWNSGALTSGVHTFPAVLQSSGLYSLSSVVTVPSSSLGTQTYICNVNHKPSNTKVDKKVEPKSCDKTHTCPPCPAPEAAGGPSVFLFPPKPKDTLMISRTPEVTCVVVDVSHEDPEVKFNWYVDGVEVHNAKTKPREEQYNSTYRVVSVLTVLHQDWLNGKEYKCKVSNKALPAPIEKTISKAKGQPREPQVYTLPPSREEMTKNQVSLTCLVKGFYPSDIAVEWESNGQPENNYKTTPPVLDSDGSFFLYSKLTVDKSRWQQGNVFSCSVMHEALHNAYTQKSLSLSPGK
light: EFVLTQSPGTLSLSPGERATLSCERSSGDIGDSYVSWYQQKPGQAPRLVIYADDQRPSGIPDRFSGSGSGTDFTLTISRLEPEDFAVYYCQSYDINIDIVFGGGTKVEIKGGSGGGGSGGATQLTQSPSLSASVGDRVTITCRASESVSTHMHWYQQKPGKQPKLLIYGASNLESGVPSRFSGSGSGTDFTLTISSLQPEDFATYFCQQSWNDPFTFGQGTKLEIKRTVAAPSVFIFPPSDEQLKSGTASVVCLLNNFYPREAKVQWKVDNALQSGNSQESVTEQDSKDSTYSLSSTLTLSKADYEKHKVYACEVTHQGLSSPVTKSFNRGEC
Potency IC50 (nM), HMVEC-d hVEGF165 (proliferation) [1]: 0.354 nM
Potency IC50 (nM), NIH-3T3 hPDGF-BB (proliferation) [2]: 0.108 nM

The remaining lines, values ahead:

Potency IC50 (nM), HMVEC-d hVEGF165 (proliferation) [1]: 0.058 nM
Potency IC50 (nM), NIH-3T3 hPDGF-BB (proliferation) [2]: 0.134 nM
B4: 9E8.4_GS_CL-34565 (PR-1613187) (bispecific antibody, human IgG1, kappa, L234A L235A)
heavy: B3 heavy with S103I, P105T, K106T
light: EFVLTQSPGTLSLSPGERATLSCERSSGDIGDSYVSWYQQKPGQAPRLVIYADDQRPSGIPDRFSGSGSGTDFTLTISRLEPEDFAVYYCQSYDINIDIVFGGGTKVEIKGGSGGGGSGGEIVLTQSPATLSLSPGERATLFCRASQSVSNHMHWYQQKPGQAPRLLIYGASILESGVPARFSGSGSGTDFTLTISSLEPEDFAVYYCQQSWYDPITFGQGTKLEIKRTVAAPSVFIFPPSDEQLKSGTASVVCLLNNFYPREAKVQWKVDNALQSGNSQESVTEQDSKDSTYSLSSTLTLSKADYEKHKVYACEVTHQGLSSPVTKSFNRGEC

Potency IC50 (nM), HMVEC-d hVEGF165 (proliferation) [1]: 0.063 nM
Potency IC50 (nM), NIH-3T3 hPDGF-BB (proliferation) [2]: 1.16 nM
B5: 3E2.1_GS_CL-34565 (PR-1613189) (bispecific antibody, human IgG1, kappa, L234A L235A)
heavy: EVQLVQSGAEVKKPGSSVKVSCKASGYTFTESYMYWVKQAPGQGLELIGRIDPEDGSTDYVEKFKNKATLTADKSTSTAYMELSSLRSEDTAVYFCARFGARSYFYPMDAWGQGTTVTVSSGGGGSGGGGSEVQLVQSGSELKKPGASVKVSCKASGYTFTDYGMYWVRQAPGQGLEWMGWIDTETGDPTYADDFKGRFVFSLDTSVSTAYLQISSLKAEDTAVYYCARTNYYYRNYMFYFDYWGQGTMVTVSSASTKGPSVFPLAPSSKSTSGGTAALGCLVKDYFPEPVTVSWNSGALTSGVHTFPAVLQSSGLYSLSSVVTVPSSSLGTQTYICNVNHKPSNTKVDKKVEPKSCDKTHTCPPCPAPEAAGGPSVFLFPPKPKDTLMISRTPEVTCVVVDVSHEDPEVKFNWYVDGVEVHNAKTKPREEQYNSTYRVVSVLTVLHQDWLNGKEYKCKVSNKALPAPIEKTISKAKGQPREPQVYTLPPSREEMTKNQVSLTCLVKGFYPSDIAVEWESNGQPENNYKTTPPVLDSDGSFFLYSKLTVDKSRWQQGNVFSCSVMHEALHNAYTQKSLSLSPGK
light: ETVLTQSPATLSLSPGERATLSCRASESVSTLMHWYQQKPGQQPRLLIYGASNLESGVPARFSGSGSGTDFTLTISSLEPEDFAVYFCQQSWNDPWTFGGGTKVEIKGGSGGGGSGGEIVLTQSPATLSLSPGERATLFCRASQSVSNHMHWYQQKPGQAPRLLIYGASILESGVPARFSGSGSGTDFTLTISSLEPEDFAVYYCQQSWYDPITFGQGTKLEIKRTVAAPSVFIFPPSDEQLKSGTASVVCLLNNFYPREAKVQWKVDNALQSGNSQESVTEQDSKDSTYSLSSTLTLSKADYEKHKVYACEVTHQGLSSPVTKSFNRGEC
